Key:
[1] = target: T1, Nogo66 binding to sNogoR344-Fc (rat Nogo receptor-1 residues 26-344) (Rattus norvegicus, UniProt Q99M75, A303T/C287S/C43R/E284G/T53A); assay: SPA bead assay: 125I-Nogo66 binding to immobilized sNogoR344-Fc, inhibition by mAb; details: 125I-Nogo66 binding to sNogoR344-Fc
T1 construct: amino acid residues 26-344 of rat Nogo receptor-1; made in house; CHO (DG44) is described only for sNogoR310-Fc
T1 sequence (Q99M75 26-344 C43R/T53A/E284G/C287S/A303T): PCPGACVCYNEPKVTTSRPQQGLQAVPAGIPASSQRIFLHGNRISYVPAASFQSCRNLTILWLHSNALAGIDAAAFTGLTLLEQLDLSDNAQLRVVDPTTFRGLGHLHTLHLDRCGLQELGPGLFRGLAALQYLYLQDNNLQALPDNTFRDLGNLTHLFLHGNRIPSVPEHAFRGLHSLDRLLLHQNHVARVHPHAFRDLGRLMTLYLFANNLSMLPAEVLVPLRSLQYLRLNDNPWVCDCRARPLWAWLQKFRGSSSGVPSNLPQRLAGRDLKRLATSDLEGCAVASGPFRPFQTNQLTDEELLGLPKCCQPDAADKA
Experimental: (§1) 0.5 μg of a soluble Nogo receptor-1 fusion protein comprising amino acid residues 26-344 of rat Nogo receptor-1 and the hinge and Fc region of the rat IgG1 molecule (sNogoR344-Fc) produced as described below was immobilized on […] of protein-A- or wheatgerm agglutinin-conjugated SPA beads (Amersham Pharmacia Biotech) for 2 hours at 25° C. SPA beads coupled with Fc-sNogoR-1, anti-Nogo receptor-1 mAb and 1 μl ^125I-Nogo66 (Amersham, 2000 Ci/mmol, 1 nM) in […] of the HEPES-buffered incubation medium (10 mM HEPES, pH 7.4, 0.1% bovine serum albumin, 0.1% ovalbumin, 2 mM MgCl2, 2 mM CaCl2 and protease inhibitors) was added to each sample well. After 16 hours, radioactivity was measured in quadruplicate samples using a TopCount® (Packard). IC50 values were calculated from a curve-fit analysis (FIG. 3) (PRISM, GraphPad Software, NJ). In some experiments, we also used AP-ligand conjugates (e.g. AP-Nogo66) and detected binding by monitoring alkaline phosphatase activity. We also assayed the ability of the mAbs to block binding of the ligands MAG-Fc and AP-OM-gp to Nogo receptor-1.

MAG + sNogoR344-Fc = target: T2, MAG + sNogoR344-Fc (Rattus norvegicus, UniProt Q99M75, A303T/C287S/C43R/E284G/T53A); assay: ELISA: inhibition of MAG binding to sNogoR344-Fc
T2 construct: amino acid residues 26-344 of rat Nogo receptor-1; made in house; CHO (DG44) is described only for sNogoR310-Fc
T2 sequence (Q99M75 26-344 C43R/T53A/E284G/C287S/A303T): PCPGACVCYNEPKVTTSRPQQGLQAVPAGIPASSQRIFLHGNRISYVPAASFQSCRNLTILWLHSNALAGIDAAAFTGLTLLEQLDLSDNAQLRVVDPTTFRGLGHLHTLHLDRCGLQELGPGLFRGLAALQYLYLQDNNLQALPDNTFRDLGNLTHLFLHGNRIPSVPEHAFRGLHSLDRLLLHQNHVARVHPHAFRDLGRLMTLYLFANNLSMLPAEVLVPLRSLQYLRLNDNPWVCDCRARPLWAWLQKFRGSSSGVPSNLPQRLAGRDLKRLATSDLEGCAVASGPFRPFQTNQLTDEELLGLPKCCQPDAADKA
Experimental: as §1
Monoclonal antibodies 7E11, 5B10, 1H2, 3G5 and 2F7 all inhibited binding of Nogo66, MAG and OM-gp to sNogoR344-Fc. The calculated IC50 for Nogo66 for 7E11 and 1H2 were 400 nM and 60 nM, respectively. The data from ELISAs monitoring mAb-mediated inhibition of binding of the three ligands to Nogo receptor-1 are summarized in Table 6.
The percent displacement is shown at 30 nM antibody and the EC50 for certain mAbs determined from curve-fit analysis as described. “-” indicates no detectable activity and “ND” indicates not determined.
We also performed ELISA binding assays using the Fab-phage 141)5.

[2] = target: T3, cells expressing human Nogo receptor-1 (Homo sapiens, UniProt Q9BZR6); assay: Immunohistochemistry on fixed and live COS-7 or 293 cells expressing human Nogo receptor-1; type: cell-based; details: immunohistochemical staining
T3 construct: expressed in transfected cells; host or cells: COS-7 or 293 cells
T3 sequence (Q9BZR6 27-447): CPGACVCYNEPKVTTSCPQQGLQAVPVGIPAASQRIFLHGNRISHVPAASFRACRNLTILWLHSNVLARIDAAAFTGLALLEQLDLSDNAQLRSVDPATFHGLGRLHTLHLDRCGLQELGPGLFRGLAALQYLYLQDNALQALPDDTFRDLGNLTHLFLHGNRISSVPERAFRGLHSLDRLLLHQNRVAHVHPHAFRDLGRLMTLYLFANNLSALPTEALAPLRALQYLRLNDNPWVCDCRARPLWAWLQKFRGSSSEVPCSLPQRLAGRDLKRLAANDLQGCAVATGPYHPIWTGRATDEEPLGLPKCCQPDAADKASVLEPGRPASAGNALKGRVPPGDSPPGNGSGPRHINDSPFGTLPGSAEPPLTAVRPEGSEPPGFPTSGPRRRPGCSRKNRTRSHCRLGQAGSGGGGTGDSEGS
Experimental: To further characterize the binding properties of anti-Nogo receptor-1 mAbs produced as described in Example 1, we compared binding to both fixed and live COS-7 or 293 cells expressing rat or human Nogo receptor-1.
Nogo receptor-1 transfected and non-transfected cells were plated in 8-well Lab-Tek™ culture slides, fixed with 4% paraformaldehyde for 15 minutes, blocked with 10% normal goat serum, 0.1% Triton X-100 in PBS for 1 hour. Mab 7E11 was added at 15 μg/ml and 1.5 μg/ml in blocking solution and incubated for 2 hours at room temperature; Alexa®-conjugated secondary antibody anti-mouse (Molecular Probes) was incubated at a 1:300 dilution in blocking solution for 1 hour; DAPI was added at 5 μg/ml to the secondary antibody to label all nuclei.
Transfected and non-transfected cells were plated in 8 well Lab-Tek™ culture slides, blocked with FACS buffer (containing 4% donor horse serum) for 30 minutes at 4° C., incubated with 7E11 at 15 μg/ml and 1.5 μg/ml in FACS buffer for 1 hour at 4° C., rinsed and incubated with secondary antibody anti-mouse-Alexa® (1:300 in FACS buffer) for 30 minutes at 4° C.

NgR3 = target: T4, NgR3 (Homo sapiens, UniProt Q86UN2); assay: Antibody binding specificity: NgR3
T4 sequence (Q86UN2 with tags, fused parts or gaps V54E/V59I/G67T/L68F/P71Q/Y90F/H92A/S94N/V144I/P190Q/T192I/R221H/S234T/E239D/G245V/P256A/Q271R/V283A/S284T/G286E/H289Q/A298V/A308V/T321S/S331P/P332S/P335A/T336S/S338D/P345H/R346P/H349S/INS350SGYK/P352A/N358S/P359H/A368V/G369S/A370S/Q373E/A374L/P375T/P378Q): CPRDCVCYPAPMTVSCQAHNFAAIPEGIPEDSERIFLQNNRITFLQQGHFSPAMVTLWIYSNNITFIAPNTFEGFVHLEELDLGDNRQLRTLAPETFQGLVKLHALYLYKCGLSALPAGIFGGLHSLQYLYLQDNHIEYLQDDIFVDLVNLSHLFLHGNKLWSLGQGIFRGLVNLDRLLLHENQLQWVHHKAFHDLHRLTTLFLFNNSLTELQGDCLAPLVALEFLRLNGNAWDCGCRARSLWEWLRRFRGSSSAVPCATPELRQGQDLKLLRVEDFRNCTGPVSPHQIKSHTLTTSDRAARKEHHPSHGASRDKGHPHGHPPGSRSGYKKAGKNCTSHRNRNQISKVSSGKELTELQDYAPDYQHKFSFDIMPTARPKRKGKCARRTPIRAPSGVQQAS

IC50 [1]: 400 nM | inhibition of binding of MAG to sNogoR344-Fc (MAG + sNogoR344-Fc): inhibited | MAG + sNogoR344-Fc: percent displacement (MAG + sNogoR344-Fc; 30 nM antibody): 30 nM (60%) | EC50 (MAG + sNogoR344-Fc; curve-fit analysis): 500 nM | binding to fixed and live cells expressing human Nogo receptor-1 [2]: bound | binding to NgR3 (NgR3): does not bind well
B1: 7E11: murine monoclonal anti-Nogo receptor-1 antibody, immunogen rat Nogo receptor-1 residues 110-125, IgG1 kappa, ATCC PTA-4587 (antibody, V domains shown)
VH: VQLQESGAELVMPGASVKMSCKASGYTFTDYWMHWVKQRPGQGLEWIGAIDPSDSYSSYNQNFKGKATLTVDGSSSTAYMQLSSLTSEDSAVYYCARRITEAGAWFAYWGQGTTVT
VL: MKLPVRLLVLMFWIPASSSDVVMTQTPLSLPVSLGDQASISCRSSQSLVHSNGNTYLHWYLQKPGQSPKLLIYKVSNRFSGVPDRFSGSGSGTDFTLKISRVDAEDLGVYFCSQSTHVPFTFGGGTKLEIKRADAAPTVSISHH
modifications: 7E11 heavy chain; 7E11 light chain
notes: murine monoclonal anti-Nogo receptor-1 antibody, immunogen rat Nogo receptor-1 residues 110-125, IgG1 kappa, ATCC PTA-4587

— patent publication US9228015B2, “Nogo receptor antagonists and methods of increasing neurite outgrowth” (Biogen Idec MA Inc., priority 2006, dated 2016)
